# Experimental data taken from FireProtDB (doi:10.1074/jbc.271.12.6832).
# Values joined by “and” are separate entries in the source; they are usually repeats but may differ in a detail not shown here. Equal entries are not always repeated.
# Settings: Streptococcus pneumoniae serotype 4 (strain ATCC BAA-334 / TIGR4); pH 6.9; Thermal; DSC; phosphate 20 mM; transition: 4; reversible: no; whole UniProt chain shown
protein,measurement,value
"Autolysin wild type, P06653 (protein) MEINVSKLRTDLPQVGVQPYRQVHAHSTGNPHSTVQNEADYHWRKDPELGFFSHIVGNGCIMQVGPVDNGAWDVGGGWNAETYAAVELIESHSTKEEFMTDYRLYIELLRNLADEAGLPKTLDTGSLAGIKTHEYCTNNQPNNHSDHVDPYPYLAKWGISREQFKHDIENGLTIETGWQKNDTGYWYVHSDGSYPKDKFEKINGTWYYFDSSGYMLADRWRKHTDGNWYWFDNSGEMATGWKKIADKWYYFNEEGAMKTGWVKYKDTWYYLDAKEGAMVSNAFIQSADGTGWYYLKPDGTLADKPEFTVEPDGLITVK",unfolding enthalpy (van 't Hoff),50 kcal/mol and 71 kcal/mol and 95 kcal/mol
